# In patent US20220324988A1:
# Target: human CD40 expressed on cells (human) (UniProt P25942)
# Assay: cell-based or functional assay
# Chain of human CD40 expressed on cells (human) (P25942 21-277): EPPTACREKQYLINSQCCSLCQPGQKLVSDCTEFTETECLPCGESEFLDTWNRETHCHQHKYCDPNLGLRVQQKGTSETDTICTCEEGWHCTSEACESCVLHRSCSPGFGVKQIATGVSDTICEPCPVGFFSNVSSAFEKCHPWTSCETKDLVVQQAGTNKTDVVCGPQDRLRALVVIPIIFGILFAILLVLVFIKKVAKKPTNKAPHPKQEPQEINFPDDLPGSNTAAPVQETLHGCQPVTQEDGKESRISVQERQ
substance,measurement,value
"CD40L (positive control, produced in 293F cells) (ligand)",GFP positive rate for Jurkat/NF-kB-GFP+hCD40 single clones after CD40L stimulation (100 nM),94.7%
